In the RNAGym collection of RNA variant scans (doi:10.7554/elife.80360):

B1: CPEB3 Ribozyme (parent)
chain: GGGGGCCACAGCAGAAGCGUUCACGUCGCGGCCCCUGUCAGAUUCUGGUGAAUCUGCGAAUUCUGCUGU

Variants of: B1
Assay: self-cleavage, relative activity (ratio to wild type); higher = more cleavage; co-transcriptional

**Q.** For GGGGGCCACAGCUGAAGCGUUCACGUCGCGGCCCCUGUCAGAUUCUGGUGAAUCUGCGUAUUCUGCUGU [A13U A59U], which self-cleavage is on record?
**A.** The self-cleavage was 0.464.

**Q.** With GGGGGCCACAGCUGAAGCGUUCACGUCGCGGCCCCUGUCAGAUUCUGGUGAAUCUGCGACUUCUGCUGU [A13U A60C] as the variant, how does the self-cleavage read?
**A.** Its self-cleavage is 0.318.

**Q.** For GGGGGCCACAGCUGAAGAGUUCACGUCGCGGCCCCUGUCAGAUUCUGGUGAAUCUGCGAAUUCUGCUGU [A13U C18A], which self-cleavage is on record?
**A.** The self-cleavage was 0.132.

**Q.** Which self-cleavage does the source give for GGGGGCCACAGCUGAAGCGUUAACGUCGCGGCCCCUGUCAGAUUCUGGUGAAUCUGCGAAUUCUGCUGU [A13U C22A] here?
**A.** The self-cleavage was 0.161.

**Q.** For GGGGGCCACAGCUGAAGCGUUGACGUCGCGGCCCCUGUCAGAUUCUGGUGAAUCUGCGAAUUCUGCUGU [A13U C22G], which self-cleavage is on record?
**A.** The self-cleavage was 0.148.

**Q.** Which self-cleavage does the source give for GGGGGCCACAGCUGAAGCGUUUACGUCGCGGCCCCUGUCAGAUUCUGGUGAAUCUGCGAAUUCUGCUGU [A13U C22U] here?
**A.** Its self-cleavage is 0.171.

**Q.** Which self-cleavage does the source give for GGGGGCCACAGCUGAAGCGUUCAGGUCGCGGCCCCUGUCAGAUUCUGGUGAAUCUGCGAAUUCUGCUGU [A13U C24G] here?
**A.** Its self-cleavage is 0.127.

**Q.** Which self-cleavage does the source give for GGGGGCCACAGCUGAAGCGUUCACGUGGCGGCCCCUGUCAGAUUCUGGUGAAUCUGCGAAUUCUGCUGU [A13U C27G] here?
**A.** The self-cleavage was 0.155.

**Q.** For GGGGGCCACAGCUGAAGCGUUCACGUUGCGGCCCCUGUCAGAUUCUGGUGAAUCUGCGAAUUCUGCUGU [A13U C27U], which self-cleavage is on record?
**A.** The self-cleavage was 0.134.

**Q.** For GGGGGCCACAGCUGAAGCGUUCACGUCGCGGUCCCUGUCAGAUUCUGGUGAAUCUGCGAAUUCUGCUGU [A13U C32U], which self-cleavage is on record?
**A.** The self-cleavage was 0.862.

**Q.** Which self-cleavage does the source give for GGGGGCCACAGCUGAAGCGUUCACGUCGCGGCUCCUGUCAGAUUCUGGUGAAUCUGCGAAUUCUGCUGU [A13U C33U] here?
**A.** Its self-cleavage is 0.894.

**Q.** For GGGGGCCACAGCUGAAGCGUUCACGUCGCGGCCUCUGUCAGAUUCUGGUGAAUCUGCGAAUUCUGCUGU [A13U C34U], which self-cleavage is on record?
**A.** Its self-cleavage is 0.917.

**Q.** Which self-cleavage does the source give for GGGGGCCACAGCUGAAGCGUUCACGUCGCGGCCCAUGUCAGAUUCUGGUGAAUCUGCGAAUUCUGCUGU [A13U C35A] here?
**A.** The self-cleavage was 0.197.

**Q.** Which self-cleavage does the source give for GGGGGCCACAGCUGAAGCGUUCACGUCGCGGCCCUUGUCAGAUUCUGGUGAAUCUGCGAAUUCUGCUGU [A13U C35U] here?
**A.** Its self-cleavage is 0.826.

**Q.** Which self-cleavage does the source give for GGGGGCCACAGCUGAAGCGUUCACGUCGCGGCCCCUGUUAGAUUCUGGUGAAUCUGCGAAUUCUGCUGU [A13U C39U] here?
**A.** The self-cleavage was 0.422.

**Q.** With GGGGGCCACAGCUGAAGCGUUCACGUCGCGGCCCCUGUCAGAUUUUGGUGAAUCUGCGAAUUCUGCUGU [A13U C45U] as the variant, how does the self-cleavage read?
**A.** The self-cleavage was 0.904.

**Q.** Which self-cleavage does the source give for GGGGGCCACAGCUGAAGCGUUCACGUCGCGGCCCCUGUCAGAUUCUGGUGAAUGUGCGAAUUCUGCUGU [A13U C54G] here?
**A.** Its self-cleavage is 0.419.

**Q.** For GGGGGCCACAGCUGAAGCGUUCACGUCGCGGCCCCUGUCAGAUUCUGGUGAAUCUGAGAAUUCUGCUGU [A13U C57A], which self-cleavage is on record?
**A.** The self-cleavage was 0.194.

**Q.** For GGGGGCCACAGCUGAAGCGUUCACGUCGCGGCCCCUGUCAGAUUCUGGUGAAUCUGCGAAUUUUGCUGU [A13U C63U], which self-cleavage is on record?
**A.** Its self-cleavage is 0.648.

**Q.** For GGGGGCCACAGCUGAAGCGUUCACGUCGCGGCCCCUGUCAGAUUCUGGUGAAUCUGCGAAUUCUGGUGU [A13U C66G], which self-cleavage is on record?
**A.** Its self-cleavage is 0.413.

**Q.** Which self-cleavage does the source give for GGGGGCCACAGCUCAAGCGUUCACGUCGCGGCCCCUGUCAGAUUCUGGUGAAUCUGCGAAUUCUGCUGU [A13U G14C] here?
**A.** Its self-cleavage is 0.351.

**Q.** Which self-cleavage does the source give for GGGGGCCACAGCUGAACCGUUCACGUCGCGGCCCCUGUCAGAUUCUGGUGAAUCUGCGAAUUCUGCUGU [A13U G17C] here?
**A.** Its self-cleavage is 0.116.

**Q.** For GGGGGCCACAGCUGAAGCGUUCACCUCGCGGCCCCUGUCAGAUUCUGGUGAAUCUGCGAAUUCUGCUGU [A13U G25C], which self-cleavage is on record?
**A.** Its self-cleavage is 0.0789.

**Q.** With GGGGGCCACAGCUGAAGCGUUCACUUCGCGGCCCCUGUCAGAUUCUGGUGAAUCUGCGAAUUCUGCUGU [A13U G25U] as the variant, how does the self-cleavage read?
**A.** Its self-cleavage is 0.108.

**Q.** Which self-cleavage does the source give for GGGGGCCACAGCUGAAGCGUUCACGUCUCGGCCCCUGUCAGAUUCUGGUGAAUCUGCGAAUUCUGCUGU [A13U G28U] here?
**A.** The self-cleavage was 0.165.

**Q.** With GGGGGCCACAGCUGAAGCGUUCACGUCGCGACCCCUGUCAGAUUCUGGUGAAUCUGCGAAUUCUGCUGU [A13U G31A] as the variant, how does the self-cleavage read?
**A.** The self-cleavage was 0.623.

**Q.** For GGGGGCCACAGCUGAAGCGUUCACGUCGCGGCCCCUAUCAGAUUCUGGUGAAUCUGCGAAUUCUGCUGU [A13U G37A], which self-cleavage is on record?
**A.** The self-cleavage was 0.184.

**Q.** With GGGGGCCACAGCUGAAGCGUUCACGUCGCGGCCCCUGUCAUAUUCUGGUGAAUCUGCGAAUUCUGCUGU [A13U G41U] as the variant, how does the self-cleavage read?
**A.** The self-cleavage was 0.333.

**Q.** With GGGGGCCACAGCUGAAGCGUUCACGUCGCGGCCCCUGUCAGAUUCUCGUGAAUCUGCGAAUUCUGCUGU [A13U G47C] as the variant, how does the self-cleavage read?
**A.** The self-cleavage was 0.877.

**Q.** For GGGGGCCACAGCUGAAGCGUUCACGUCGCGGCCCCUGUCAGAUUCUGAUGAAUCUGCGAAUUCUGCUGU [A13U G48A], which self-cleavage is on record?
**A.** The self-cleavage was 0.911.

**Q.** With GGGGGCCACAGCUGAAGCGUUCACGUCGCGGCCCCUGUCAGAUUCUGGUGAAUCUUCGAAUUCUGCUGU [A13U G56U] as the variant, how does the self-cleavage read?
**A.** The self-cleavage was 0.348.

**Q.** For GGGGGCCACAGCUGAAGCGUUCACGUCGCGGCCCCUGUCAGAUUCUGGUGAAUCUGCCAAUUCUGCUGU [A13U G58C], which self-cleavage is on record?
**A.** The self-cleavage was 0.788.

**Q.** With GGGGGCCACAGCUGAAGCGUUCACGUCGCGGCCCCUGUCAGAUUCUGGUGAAUCUGCUAAUUCUGCUGU [A13U G58U] as the variant, how does the self-cleavage read?
**A.** Its self-cleavage is 0.911.

**Q.** For GGGGGCCACAGCUGAAGCGAUCACGUCGCGGCCCCUGUCAGAUUCUGGUGAAUCUGCGAAUUCUGCUGU [A13U U20A], which self-cleavage is on record?
**A.** Its self-cleavage is 0.0602.

**Q.** For GGGGGCCACAGCUGAAGCGUUCACGACGCGGCCCCUGUCAGAUUCUGGUGAAUCUGCGAAUUCUGCUGU [A13U U26A], which self-cleavage is on record?
**A.** The self-cleavage was 0.626.

**Q.** For GGGGGCCACAGCUGAAGCGUUCACGCCGCGGCCCCUGUCAGAUUCUGGUGAAUCUGCGAAUUCUGCUGU [A13U U26C], which self-cleavage is on record?
**A.** The self-cleavage was 0.422.

**Q.** For GGGGGCCACAGCUGAAGCGUUCACGGCGCGGCCCCUGUCAGAUUCUGGUGAAUCUGCGAAUUCUGCUGU [A13U U26G], which self-cleavage is on record?
**A.** The self-cleavage was 0.287.

**Q.** With GGGGGCCACAGCUGAAGCGUUCACGUCGCGGCCCCCGUCAGAUUCUGGUGAAUCUGCGAAUUCUGCUGU [A13U U36C] as the variant, how does the self-cleavage read?
**A.** Its self-cleavage is 0.647.

**Q.** Which self-cleavage does the source give for GGGGGCCACAGCUGAAGCGUUCACGUCGCGGCCCCUGUCAGAGUCUGGUGAAUCUGCGAAUUCUGCUGU [A13U U43G] here?
**A.** The self-cleavage was 0.221.
